Values of other authors in publication PMC3036710.

Legend:
Assay in all cases: solid-phase binding
[1] = biological target: S100b calgranulin (Homo sapiens) (UniProt P04271)
[2] = biological target: CML-bovine serum albumin (Bos taurus) (UniProt P02769)
[3] = biological target: HMGB-1 (Homo sapiens) (UniProt P09429)
Chain of UniProt P09429 (P09429 whole entry): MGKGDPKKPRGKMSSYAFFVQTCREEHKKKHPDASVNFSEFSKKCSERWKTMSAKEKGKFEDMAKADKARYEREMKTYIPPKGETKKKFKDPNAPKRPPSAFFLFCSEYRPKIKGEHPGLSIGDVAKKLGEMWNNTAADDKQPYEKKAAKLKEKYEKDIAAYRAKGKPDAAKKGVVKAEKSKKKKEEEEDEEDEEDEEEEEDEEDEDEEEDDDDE

Chain of UniProt P02769 (P02769 25-607): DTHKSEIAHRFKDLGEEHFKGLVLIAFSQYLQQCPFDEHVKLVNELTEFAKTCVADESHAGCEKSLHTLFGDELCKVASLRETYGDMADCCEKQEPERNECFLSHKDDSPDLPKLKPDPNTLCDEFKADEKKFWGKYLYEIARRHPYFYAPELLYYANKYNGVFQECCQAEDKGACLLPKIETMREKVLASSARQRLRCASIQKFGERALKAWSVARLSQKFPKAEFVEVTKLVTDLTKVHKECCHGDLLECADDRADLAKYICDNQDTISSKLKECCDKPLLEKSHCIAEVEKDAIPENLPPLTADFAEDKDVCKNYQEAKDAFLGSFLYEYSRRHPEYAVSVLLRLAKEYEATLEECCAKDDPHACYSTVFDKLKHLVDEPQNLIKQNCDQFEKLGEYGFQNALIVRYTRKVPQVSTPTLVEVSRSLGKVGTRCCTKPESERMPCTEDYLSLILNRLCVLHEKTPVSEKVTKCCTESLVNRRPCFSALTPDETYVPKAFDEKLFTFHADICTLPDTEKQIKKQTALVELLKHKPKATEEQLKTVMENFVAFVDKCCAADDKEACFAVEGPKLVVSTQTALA
Chain of UniProt P04271 (P04271 2-92): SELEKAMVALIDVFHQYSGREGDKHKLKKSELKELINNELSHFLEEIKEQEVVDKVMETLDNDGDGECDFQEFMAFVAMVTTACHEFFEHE

Kd [1]: 0.45 nM
Kd [2]: 0.43 nM
Kd [3]: 0.64 nM
Substance: RAGE (from UniProt Q15109)
